A short description of the series: yeast display, Sf9 membrane polyspecificity reagent, FACS + sequencing; frameworks hold sequencing errors. An outline of the steps: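 Using colony PCR, genes from sorted yeast display clones were amplified, then sequenced on MiSeq at 2 × 250 and filtered by CDR length. The clones had been stained with 10% biotinylated, detergent-solubilized Sf9 membrane reagent for 1 hour at 4 °C and sorted by FACS into low and high (top ~1%) gates on anti-HA and streptavidin fluorescence. Polyreactivity labels come from the gate of origin.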
With “QVQLVESGGGLVQAGGSLRLSCAASGRIFYRYAMGGYRQAPGKERELVASITTSGDSTYYADSVKGRFTISRDNAKNTVYLQMNSLKPEDTGVYYCAASSYRGRRYDYWGQGTQVTVSS”, the “polyreactivity (PSR sort gate)” value is listed as “high polyreactivity”.

Consider “QVQLVESGGGLVQAGGSLRLICAASGRTFPGYGMGWYRQAPGKERELVAVITSNGGITYYADSVKGRFTISRDNAKNTVYLQMNSLKPEDTAVYYCAAYEIYNEFDSWGQGTQVTVSS”, for which the “polyreactivity (PSR sort gate)” value is “low polyreactivity”. The result for “QVHLVESGGGLVQAGGSLRLSCAASGSIFDVNAMGWYRQSPGKERELVASIDNSGTTNYADSVKGRFTISRDNAKNTVYLLMNSLKPEDTAVYYGAAEYESGDYWGQGTQVTVSS” reads “low polyreactivity”. With “QVQLVESGGGLVQAGGSLRLSCAASGSIFSAYAMGWYRQAPGKERELVAAISSRGSRTYYAYSVKGRFTISRDYAKNSVYLQMNSLKPEDTAVYYCAADPFSSYYKMDYWGQGTQVTVSS”, the “polyreactivity (PSR sort gate)” value is reported as “high polyreactivity”. Under “QVQHVESGGGLVQAGCSLRLSCAASGFTFYSYAMGWYSQTPGKERELVASISRTGGGTYYADSVKGSFTISRDNAKNTVSLQMNSLIPVDTAVYYCNASPNIRVRYYYRKYDYWGQGTQVTVSS” stands “high polyreactivity”; under “QVQLVESGGGLVQAGGSLRLSCAASGITFGRYALGWYRQAPGKERELVATITVNGGRTYYADSVKGRFTISRDNAKNTVYLQMNSLKPEDTAVYYCAAERRNSYVLLFKYNYWGQGTQVTVSS”, “low polyreactivity”. The result for “QVQLVESGGGLVQAGCSLRLSCAASGRIFDTYAKGWYRQAPGKERELVATITAGTSTNYADSVKGRFTISRDNAKNTVYLKMNCLKPEDTAVYYCAASKYGSPPYRSYVYWGQGTQVSVSS” reads “high polyreactivity”. The result for “QVQLVESGVGIVQAGGSLRLSCAASGRISYFNAMGWYRQAPGKERELVAAIRRSGGITYYADSVKGRFTISRDNAKNTVYLQMNSLKPEDTAVYYFATERYSWAERDFGYWGQGTLVTVSS” reads “low polyreactivity”. Turning to “QVQLVESGGGLVQAGGSLRLSCAASGFIFYYNAMGWYRQAPGKERELVAAITRSGGSTYYADSVKGRFTISRDNAKNTVYLQMNSLKPEDTAVYYCAARVYPYHWSYYYWGQGTQVTVSS”, the “polyreactivity (PSR sort gate)” value is listed as “high polyreactivity”. The result for “QVQLVESGGGLVQAGGSLRLSCAASGRTFPYYAMGWYRQAPGKERELVAAISSSGGGTYYADSVKGRFTISRDNAKNTVYLQMNSLKPEDTAVYYCNAVSYYQDSFYYWGQGTQVTVSS” reads “high polyreactivity”; that for “QVQLVESGGGLVQAGGSLRLSCAASGSIFNYYAMGWYRQAPGKERELVAGITTSGGSTYYADSVKGRFTISRDNAKNTVYLQMISLKPEDTAVYYCAAYDYISSTYFLDDYWGQGTQVSVSS”, “low polyreactivity”. Regarding “QVQLVESGGGLVQAGGSLRLTCAASGSIFGVYTMGWYRQAPGKERELVAAITSAGSTYADSVKGRFTISRDNAKNTVYLQMNSLNPEDTEVYYCNAQSFLLSLRVELREPHEYWGQGTQVTVSS”, the “polyreactivity (PSR sort gate)” value is recorded as “low polyreactivity”. Under “QLQLVESGPGLVQAGGSLRLSCAPSGSTFNRNAMGCYSQAPGKERELVAVISSGGSTYYADSVKGRFTISRDIAKNTVYLQMNSLKPEDTAVYYCAAGDPQKEDYWGQGTQVTVSS” stands “low polyreactivity”. In the case of “QVQLVESGGGLVQAGGSLRLSCAASGSTLYAYVMGWYRQAPGKERELVATISWSGGRTYYADSVKGRFTISRDNAKNTVYLQMNSLKPEDTAVYYCNARRRYSYVSRKFDYWGQGTQVTVSS”, the “polyreactivity (PSR sort gate)” value was “high polyreactivity”. “QVQLVESGGGLVQAGGSLRLSCAASGRTFGEYTMGWYRQAPGKERELVAAISSAGRTNYADSVKGRFTISRDNAKNTVYLQMNSLKPEDTAVYYCAKTAERLHYGVYRFDYWGQGTQVTVSS”: the “polyreactivity (PSR sort gate)” value is “low polyreactivity”. The result for “QVQLVESGGGLVQAGGSLRLSCAASGFTFSRYTMGWYRQAPGKERELDAAINRRGGSTYYADSVKGRFTISRDNAKNTVYLQMNSLKPEDTAVYYCAATYTVRSGNGIANDYWGQGTQVTVSS” reads “high polyreactivity”.

Consider “QVQLVESGGGLVQAGGSLRLSCAASGFIFGGNAMGWYRQAPGKERELVAAVSWIAGSTHYADSVKGRFTISRDNAKNTVYLQMNSLKPEDTAVYYCAADHEGSLSRGFTETDYDYWGQGTQVTVSS”, for which the “polyreactivity (PSR sort gate)” value is “low polyreactivity”. Under “QVQLVESGGGLVQARGSLRLSCASSGSIFNYYDMGWYRQAPGKERELVAAIDTSGGSTYFADSVKGRFTISRDNAKNTVYLQMNRLKPEDTAVYYCAAEWPYYDKIYDYWGQGTQVTVSS” stands “low polyreactivity”; under “QVQHVESGGGLVQAGGSLRLSCAASGITFWSNAKGWYRQAPGKEREMVAAITSSGGSTYYADSVKGRFTISRDNAKNTVYLHMNSLKPEDTAVYYCAAPISSSAGWDSYDYWGQGTQVTVSS”, “low polyreactivity”; under “QVQLVESGGGLVQAGGSLRLSCAASGSIFDVYAMGWYRPAPGKEREFVATITTSGGNTYYADSVKGRFTISRDHAKNTVHLQMNSLKPEDTAVYYCAKDRVKSPYLVYDSWGQGTQGTVSS”, “low polyreactivity”. Under “QVQLVESGGGLVQAGGSLRLSCAASGSTFVGNSMGWYRKAPGKERELVAAISGSAGRTYYADSVKGRFTISRDNAKNTVYLQMNSLKPEDTAFYYCNKRYRGGVVYSRYDYWGQGTQVTVSS” stands “low polyreactivity”; under “QVQLVESGGGLVQAGGSLRLSCAANGYIFLIYDRGWYRQSPGKEMELVAAISNSVGSTYADSVKGRFTISRDNAKNTDYLQMNSLKPEDTAVYYCNADSGPIDGRGGYWGQGTQVTVSS”, “low polyreactivity”.

As for “QVQLVESGGGIVQAGGSLRLSCAASGSIFSENTMGWYRQAPGKKRELVADITSGGSTNYADSVKGRFTISRDNAKNTVYLQMNSLKPEDTAVYYCNADWEAYKYNYWGQGTQVTVSS”, the “polyreactivity (PSR sort gate)” value is recorded as “low polyreactivity”. Turning to “QVQLVESGGGLVQAGGRLRLSCAASGRIFLPDGMGWYIQAAGKERELVATITIGGSSTYADSVKGRFTISRDNAKNTVNLQMNSLKPEHTAVYYCAVRRWVYYLHGYDYWGQGTQETVSS”, the “polyreactivity (PSR sort gate)” value was “low polyreactivity”.

Turning to “QVQLVESGGGLVQAGGSLRLSCAASGFTFTAYAMGWYRQAPGKERELVAAINWSGSRTYYADSVKGRFTISRDNAKNNVYLKMNSLKPEDTAVYYCNTATSKSSYRHYDYWGQGTQVTVSS”, the “polyreactivity (PSR sort gate)” value is reported as “high polyreactivity”. The result for “QVQLVESGGGLVQAGGSLRLSCAASGRIFTYYAMGWYRQAPGKERELVAAITGSGTSTYYADSVKGRFTISRDNAKNTVYLQMNSLKPEDTAVYYCAARNSYSRYYYWGQGTQVTVSS” reads “high polyreactivity”; that for “QVQLVESGGGLVQAGGSLRLSCPASGFTIRRNAMGCYRQAPGKERELVAAITRGGGSTYYADSVKGRFTISRDNAKNTVYLQMNSLKPEDTAVYYCSADGYYQYESWGQGTQVTVSS”, “high polyreactivity”; that for “QVQLVESGGGLVQAGGSLRLSCAASGGTFYVYAMGWYRQAPGKERELVAAISTSDGITYYADSVKGRFTISRDNAKNTVYLQMNSLNPEDTAVYYCAAVFFSSFTYAYDYWGQGTLVTVSS”, “high polyreactivity”.

For “QVQLVESGGGLVQAGGSLRLSCAASGRNFYSYVMGWYRQAPGKERELVASIRVSGGSTYYADSVKGRFTISRDNAKNTVYLQMNSLKPEDTAVYYCAAGYRSGVSLWRFYAYYWGQGTQVTVSS”, the “polyreactivity (PSR sort gate)” value is reported as “high polyreactivity”. For the sequence “QVHLVQTGGGLVQAGGSLRLSCAASGRIFRTNGMGWYRQAPGKERELVAAISSGDSTYYADSVKVRFTISRDNAKNTVYLQMNSLKPEDTAVYYCAADFGRKGGPGYDYWGQGTQVTVSS”, the “polyreactivity (PSR sort gate)” value is recorded as “low polyreactivity”. Under “QVQLVESAGGLVQAGGSLRLSCAASGYIFSDNTMGWYRQAPGKERELVAVITSGTSTSYADSVKGRFTISRDNAKNTVYLQMNSLKPEDSAVYYAARTGQYKTYGEYDYWGQGTQVTVSS” stands “low polyreactivity”; under “QVQLVDSGGGLVQAGGSLRLSCAASGSTFYYYAMGWYRQAPGKERELVAAITYSGGSTTYADSVKGRFTFSRDNAKNTVYLQMNSLKPEDTAVYYCAAYVYRYHRVAYEYWGQGTQVTVSS”, “high polyreactivity”; under “QVQLVESGGGLVQAGGTLRLSCAASGSTFGRYAMGWYRQAPGKERELVAAITSDTGNTNYADSVKGRFTISRDNAKNTVYLQMNSLKPEDTAVYYCAARLYARRVYDYWGQGTQVTVSS”, “low polyreactivity”. As to “QVQLVESGGGLVQAGGSLRLSCAASGSIFYNAMGGYRQAPGKERELVAGISSGTSTYYADSVKGRFTISRDNAKNTVYLLMNSLKPEDTEVYYCATRWSYRYGYWGQGTQVTVSS”, the “polyreactivity (PSR sort gate)” value is recorded as “high polyreactivity”.

Consider “QVLLVESGGGFVQAGGSLRLSCSASGSIFSPYTMGWYRQATGKERELVAAISRGGNTYYADSVKGRFTISRDNAKNTVYLQMNSLKPEDTAVYYCAARAKYDRRTDGTSGYDYWGQGTQVTVSS”, for which the “polyreactivity (PSR sort gate)” value is “low polyreactivity”.

In the case of “QVQLVESGGGLVQAGGSLRLSCAASGFTIYYYAMGWDRQAPGKERELVASITSGGSTYYADSVKGRFTISRDNAKNTVYLQMNSLKPEDTAVYYCAADYYSPSLRYDYWGQGTQVTVSS”, the “polyreactivity (PSR sort gate)” value is “low polyreactivity”.

For “QVQLVESGGGLVQAGGSLRLSCAASGSIFYSYAMGWYRQAPGKERELVAAITSRTGNTYYADSVKGRFTISRDNAKNTVYLQMNSLKPEDTAVYYCAAKLVNALLHYRIWNHNNYWGQGTQVSVSS”, the “polyreactivity (PSR sort gate)” value was “low polyreactivity”. The result for “QVQLVESGGGLVQAGGSLRLSCAASGRSFSYNAMGWYRQAPGKERELVASISGNGGRTYYADSVKGRFTISRDNAKNTVYLQMNSLKPEDTAVYYCAARYYSWGGVQYDYWGQGTQVTVSS” reads “high polyreactivity”; that for “QVQLVESGGGLVQAGGSLRLSCAASGFTFITNAMGWYRQAPGKERELVAAISSSGGRTYYADSVKGRFTISRDNAKNTVYLQMNSLKPEDTAVYYCNADRSLLYSRKIEYDYWGQGTQVTVSS”, “low polyreactivity”; that for “QVQLVESGGGLVQAGGSLRLSCAASGNIFATYAMGWYRQAPGKERELVAAIRSGGNTNYADSVKGRFTISRDNAKNTVYLQMNSLKPEDTAVYYCNAYKIFYGYIRYNYWGQGTQVTVSS”, “high polyreactivity”.

In the case of “QVQHVESGGGLVQAGGSLRLSGAAYGRTFLYNAKGWNIQAPGKERELVAVISKRGGRTYYADSVKGRFTISRDNAKNTVYLQMKSLKPEDTAVYYCGAAYVTPPGPLRYNEYYWGQGSQVTVSS”, the “polyreactivity (PSR sort gate)” value is “high polyreactivity”.

The values above are taken from the nanobody polyreactivity screen of Harvey et al. (2022).
